According to publication PMC5228287 (Food chemistry, 2016):
Each block holds one molecule with its values, some of them ahead of it.

Columns and labels:
pancreatic lipase = target: T1, pancreatic lipase (Sus scrofa, UniProt P00591); test: 4-NPB hydrolysis assay; format: biochemical
T1 sequence (P00591 1-450): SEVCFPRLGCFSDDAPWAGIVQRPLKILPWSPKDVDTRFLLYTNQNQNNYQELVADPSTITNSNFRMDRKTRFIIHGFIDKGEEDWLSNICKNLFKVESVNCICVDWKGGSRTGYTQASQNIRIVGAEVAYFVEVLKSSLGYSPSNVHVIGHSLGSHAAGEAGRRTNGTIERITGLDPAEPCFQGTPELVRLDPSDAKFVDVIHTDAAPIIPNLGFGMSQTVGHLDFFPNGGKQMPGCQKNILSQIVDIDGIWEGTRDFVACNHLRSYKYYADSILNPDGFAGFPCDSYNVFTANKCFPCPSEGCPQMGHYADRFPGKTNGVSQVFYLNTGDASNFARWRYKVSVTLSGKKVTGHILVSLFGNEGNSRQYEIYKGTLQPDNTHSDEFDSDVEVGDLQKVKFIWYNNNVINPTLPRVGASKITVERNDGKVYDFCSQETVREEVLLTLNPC

[1] = substrate: CCCC(=O)Oc1ccc([N+](=O)[O-])cc1; test: Michaelis-Menten kinetics; format: biochemical, Sus scrofa

IC50 (pancreatic lipase): > 10 µM
Molecule: O=c1c(O)cc([C@H]2Oc3cc(O)cc(O)c3C[C@H]2O)cc2c([C@H]3Oc4cc(O)cc(O)c4C[C@H]3O)cc(O)c(O)c12 [TF, Theaflavin]

B1: pancreatic lipase (Sus scrofa) (protein)
chain: T1 sequence (P00591 1-450)
Km [1]: 149.3 ± 24.2 µM
Vmax [1]: 1.51e-05 ± 1e-06 µmol/min/mg
